Eleven molecules from US20250223342A1 (ARGENX, published 2025) can be followed below.

Like-named read-outs stand apart in the source and are kept apart here.

What is called Kd is a measure of binding affinity in units of concentration. For orientation: koff means the first-order rate constant of dissociation.

The target in assay [1] is T1, human serum albumin (human, UniProt P02768 25-609).
T1 construct: also called HSA
Kind of assay: SPR (Biacore 8K+, single cycle kinetics), HSA on CM5 chip. (In general: Surface plasmon resonance follows binding to a sensor surface in real time, without labels.)

The target of assay [2] is T1, human serum albumin. The experiment in a line: SPR (Biacore 8K+, single cycle kinetics), HSA on CM5 chip, HBS-EP+ pH 7.4.
Assay [3] addresses T1, human serum albumin. The experiment in a line: SPR (Biacore 8K+, single cycle kinetics), HSA on CM5 chip, citrate buffer pH 5.5.
Assay [4] concerns the target T2, cynomolgus monkey serum albumin (cynomolgus monkey, UniProt A2V9Z4 25-608).
T2 construct: also called cyno albumin; CSA
The experiment in a line: SPR (Biacore 3000), albumin on chip, Fc-ABDEG fusion.

For assay [5], the target named is T1, human serum albumin. Kind of assay: SPR (Biacore), VHH clone, pH 5.5.
For assay [6], the target named is T1, human serum albumin. Kind of assay: SPR (Biacore), VHH clone, pH 7.4.
Assay [7] has as its target T3, isolated DII of serum albumin (UniProt P02768 211-403, limits assumed).
T3 construct: domain: DII
Kind of assay: DII binder column of the clone screening.

Assay [8] concerns the target T1, human serum albumin. The experiment in a line: SPR (Biacore), off-rate pH 7.4 over pH 5.5.
Assay [9] has as its target T2, cynomolgus monkey serum albumin. Kind of assay: species reactivity, screening by ELISA and Biacore. (In general: ELISA stands for enzyme-linked immunosorbent assay.)
The next assay deals with T4, mouse serum albumin (mouse, UniProt P07724 25-608).
T4 construct: also called MSA; mouse albumin
Kind of assay: species reactivity, screening by ELISA and Biacore.

The target in assay [10] is T1, human serum albumin. The experiment in a line: SPR (Biacore 3000), HSA on chip, Fc-ABDEG fusion, pH 5.5.
Assay [11] deals with T1, human serum albumin. Kind of assay: SPR (Biacore 3000), HSA on chip, Fc-ABDEG fusion, pH 7.4.
Assay [12] addresses T1, human serum albumin. Kind of assay: SPR (Biacore 3000), HSA on chip, Fc-ABDEG fusion, pH 5.5. The source holds these as a separate data set.
Assay [13] addresses T1, human serum albumin. The experiment in a line: SPR (Biacore 3000), HSA on chip, Fc-ABDEG fusion, pH 7.4. This is another data set of the same source.
The target of assay [14] is T1, human serum albumin. The experiment in a line: SPR (Biacore 3000), HSA on chip, Fc-ABDEG fusion, ratio of R0.
For assay [15], the target named is T1, human serum albumin. Described as above. The source holds these as a separate data set.
For assay [16], the target named is T2, cynomolgus monkey serum albumin. The experiment in a line: SPR (Biacore 3000), cyno albumin on chip, Fc-ABDEG fusion, pH 5.5.
For assay [17] the target is unchanged. The experiment in a line: SPR (Biacore 3000), cyno albumin on chip, Fc-ABDEG fusion, pH 7.4.
Assay [18] has the same target. Kind of assay: SPR (Biacore 3000), cyno albumin on chip, Fc-ABDEG fusion, ratio of R0.

“Motavizumab-Fab fragment with Alb23 fused C-terminally to the light chain using a 20GS linker”: the KD ratio (pH 7.4 / pH 5.5) with human serum albumin [1] came out at 5.28. For the same molecule, the Kd was found to be 65 nM in the assay with human serum albumin [2] and 12.3 nM with human serum albumin [3].

B1: Motavizumab-Fab fragment fused with 2H11 C-terminally to the light chain using a 20GS linker (protein, part only; not given: motavizumab Fab and linker, not shown: another chain or arm of the molecule; small tags and cut ends)
VHH: ELQVVESGGGLVQAGGSLRLSCAASGRTFRSNTMGWFRQAPGKEREFVAAITWSGGTTYYADSVKGRFAISGDNAKNTVYLQMNSLKPEDTAVYYCAAEGPKWEPWNGIYHPADFGSWGQGTQVTVSS
Consider B1, for which the KD ratio (pH 7.4 / pH 5.5) in the assay with human serum albumin [1] worked out at 92.6. Besides, the Kd came to 264 nM with human serum albumin [2] and 2.85 nM in the assay with human serum albumin [3].

B2: 2H11-v12 fused at the C-terminus of Fc-ABDEG (two-armed Fc-ABDEG-20GS-Cterm fusion) (Fc fusion, not shown: a dimerising Fc or GST; large carriers; small tags and cut ends)
VHH: ELQVVESGGGLVQAGGSLRLSCAASGRTFRSNTMGWFRQAPGKEREFVAAITWSGGTTYYADSVKGRFAISGDNAKNTVYLQMNSLKPEDTAVYYCAAEGPKWEPWNGIAHPADFGSWGQGTQVTVSS
With B2, the binding result in [4] is given as “no binding”.

B3: 2H11-v15 fused at the C-terminus of Fc-ABDEG (two-armed Fc-ABDEG-20GS-Cterm fusion) (Fc fusion, not shown: a dimerising Fc or GST; large carriers; small tags and cut ends)
VHH: ELQVVESGGGLVQAGGSLRLSCAASGRTFRSNTMGWFRQAPGKEREFVAAITWSGGTTYYADSVKGRFAISGDNAKNTVYLQMNSLKPEDTAVYYCAAEGPKWEPWNGIYHPAAFGSWGQGTQVTVSS
Turning to B3, in assay [4], the binding result is given as “no binding”.

B4: 2H11-v16 fused at the C-terminus of Fc-ABDEG (two-armed Fc-ABDEG-20GS-Cterm fusion) (Fc fusion, not shown: a dimerising Fc or GST; large carriers; small tags and cut ends)
VHH: ELQVVESGGGLVQAGGSLRLSCAASGRTFRSNTMGWFRQAPGKEREFVAAITWSGGTTYYADSVKGRFAISGDNAKNTVYLQMNSLKPEDTAVYYCAAEGPKWEPWNGIYHPADAGSWGQGTQVTVSS
As to B4, the binding result in assay [4] was “no binding”.

B5: 12G03 (VHH)
VHH: QVQLVESGGGLVQAGGSLRLSCAASERAFSHSNMAWFRQAPGKEREFVAHIHWRGSTTYLDSVKGRFTISRDNAKNTVYLQMNGLRLEDTAVYYCAADSARRILVTVSTSYDYWGQGTQVTVSS
With B5, in the assay with human serum albumin [5], the affinity, expressed as Kd, was 8.14 nM. The koff with human serum albumin [5] came out at 0.00126 s⁻¹; in the assay with human serum albumin [6] it was 0.00522 s⁻¹. Further, the results for the binding result (in assay [7]; in assay [9]; in the assay with mouse serum albumin) were “no binding”, “binds” and “binds”, respectively. For the same molecule, in the assay with human serum albumin [8], the “Ratio Kd” value is 4.1.

B6: 9F02 (VHH)
VHH: EVQLVESGGGLVQAGGSLRLSCTASRRAFIGYAMGWFRQAPGKEREFVAAISWFAGDTTDYADSVKGRFTISRDNAKNTVYLQMNGLKPEDTAVYVCAASSARPMSGRSDEYHYWGQGTQVTVSS
In the assay with human serum albumin [5], B6 returned a Kd of 0.575 nM. The koff with human serum albumin [5] worked out at 7.8e-05 s⁻¹; with human serum albumin [6] it was 0.00013 s⁻¹. The “Ratio Kd” value with human serum albumin [8] is 1.6. For the same molecule, the binding result (in assay [9]; with mouse serum albumin) was “binds” throughout.

B7: 9E10 (VHH)
VHH: QLQVVESGGGLVQAGGSLRLSCTTSGRAFIGYAMGWFRQAPGKEREFVAAISWFAGDTTDYANSVKGRFTISRDNAKNTVYLQMNSLKPEDTAVYVCAASSARPLSSRSDEYHYWGQGTQVTVSS
Turning to B7, the Kd in the assay with human serum albumin [5] was 15.4 nM. The koff in the assay with human serum albumin [5] worked out at 0.00246 s⁻¹; with human serum albumin [6], 0.00412 s⁻¹. Also, the “Ratio Kd” value with human serum albumin [8] stood at 1.7. Moreover, the binding result (in assay [9]; with mouse serum albumin) was “binds” throughout.

B8: 11C03 parental fused at the C-terminus of Fc-ABDEG (Fc fusion, not shown: a dimerising Fc or GST; small tags and cut ends)
chain: QLQVVESGGGLVQAGGSLRLSCAASERTFVAYPMGWFRQAPEKEREFVAGISWFAGATTDYADSVEGRFTISRDNAKNTAYLQMNNLKPEDTAVYYCAISHQLPGGRPGRDMDSYSYWGHGTQVTVSS
With B8, the “R0 pH 5.5” value in the assay with human serum albumin [10] is 177 RU; in the assay with human serum albumin [12], 229 RU; in assay [16] it was 220 RU. Also, the “R0 pH 7.4” value with human serum albumin [11] was 42.2 RU; in the assay with human serum albumin [13] it was 57 RU; in [17], 33 RU. Further, the “R0 5.5/7.4” value worked out at 4.22 in the assay with human serum albumin [14], 4 in the assay with human serum albumin [15] and 6.7 in assay [18].

B9: 11C03 (VHH)
VHH: QLQVVESGGGLVQAGGSLRLSCAASERTFVAYPMGWFRQAPEKEREFVAGISWFAGATTDYADSVEGRFTISRDNAKNTAYLQMNNLKPEDTAVYYCAISHQLPGGRPGRDMDSYSYWGHGTQVTVSS
notes: also called 11C03 parental (VHH)
For B9, in the assay with human serum albumin [5], the dissociation constant (Kd) was found to be 4.12 nM and the off-rate constant (koff) was determined as 0.00051 s⁻¹. The koff with human serum albumin [6] was found to be 0.0039 s⁻¹. The “Ratio Kd” value with human serum albumin [8] was determined as 7.7. Further, the binding result with mouse serum albumin is listed as “binds”.

B10: 11C03-v6 fused at the C-terminus of Fc-ABDEG (Fc fusion, not shown: a dimerising Fc or GST; small tags and cut ends)
chain: QLQVVESGGGLVQAGGSLRLSCAASERTFVAYPMGWFRQAPEKEREFVAGISWFAGATTDYADSVEGRFTISRDNAKNTAYLQMNNLKPEDTAVYYCAISHQLPAGRPGRDMDSYSYWGHGTQVTVSS
On to B10, for which, in the assay with human serum albumin [10], the “R0 pH 5.5” value turned out to be 39.3 RU. Also, the “R0 pH 7.4” value with human serum albumin [11] was 12.1 RU. Further, the “R0 5.5/7.4” value in the assay with human serum albumin [14] was found to be 3.26.
